According to the supplement of paper PMC10567573:

B1: SMTNL2 (parent)
chain: QKNFELAFTMAENLANCERLIEVE

Variants of: B1
Assay: protein stability index of a GFP-peptide fusion (GPS, HEK-293T) (PSI 1-6); higher = more stable
Conditions: c terminus: a fixed tail appended
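Also: lentivirally expressed fusions sorted by FACS into six bins by GFP to DsRed ratio, PSI derived from sequencing read proportions per bin multiplied by bin number.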

Row | Variant | protein stability index
1 | QKNFEPAFTMAENLANCERLIEVE [L6P] | 3.62
2 | QKNFEVAFTMAENLANCERLIEVE [L6V] | 2.04
3 | QKNFETAFTMAENLANCERLIEVE [L6T] | 2.01
4 | QKNFERAFTMAENLANCERLIEVE [L6R] | 3.29
5 | QKNFESAFTMAENLANCERLIEVE [L6S] | 2.19
6 | QKNFEQAFTMAENLANCERLIEVE [L6Q] | 2.54
7 | QKNFELSFTMAENLANCERLIEVE [A7S] | 1.78
8 | QKNFELFFTMAENLANCERLIEVE [A7F] | 1.88
9 | QKNFELTFTMAENLANCERLIEVE [A7T] | 2.2
10 | QKNFELLFTMAENLANCERLIEVE [A7L] | 1.22
11 | QKNFELWFTMAENLANCERLIEVE [A7W] | 2.26
12 | QKNFELVFTMAENLANCERLIEVE [A7V] | 1.77
13 | QKNFELEFTMAENLANCERLIEVE [A7E] | 1.68
14 | QKNFELCFTMAENLANCERLIEVE [A7C] | 2.56
15 | QKNFELPFTMAENLANCERLIEVE [A7P] | 3.32
16 | QKNFELMFTMAENLANCERLIEVE [A7M] | 1.73
17 | QKNFELHFTMAENLANCERLIEVE [A7H] | 2.16
18 | QKNFELQFTMAENLANCERLIEVE [A7Q] | 2.58
19 | QKNFELDFTMAENLANCERLIEVE [A7D] | 2.85
20 | QKNFELYFTMAENLANCERLIEVE [A7Y] | 2.08
21 | QKNFELKFTMAENLANCERLIEVE [A7K] | 2.98
22 | QKNFELAFTMKENLANCERLIEVE [A11K] | 2.29
23 | QKNFELAFTMDENLANCERLIEVE [A11D] | 3.85
24 | QKNFELAFTMNENLANCERLIEVE [A11N] | 2.82

Row | Variant | protein stability index
25 | QKNFELAFTMPENLANCERLIEVE [A11P] | 3.85
26 | QKNFELAFTMQENLANCERLIEVE [A11Q] | 1.62
27 | QKNFELAFTMMENLANCERLIEVE [A11M] | 1.49
28 | QKNFELAFTMSENLANCERLIEVE [A11S] | 2.79
29 | QKNFELAFTMGENLANCERLIEVE [A11G] | 2.04
30 | QKNFELAFTMHENLANCERLIEVE [A11H] | 3.39
31 | QKNFELAFTMCENLANCERLIEVE [A11C] | 3.46
32 | QKNFELAFTMRENLANCERLIEVE [A11R] | 3.03
33 | QKNFELAFTMWENLANCERLIEVE [A11W] | 2.75
34 | QKNFELAFTMEENLANCERLIEVE [A11E] | 3.78
35 | QKNFELAFTMIENLANCERLIEVE [A11I] | 4.18
36 | QKNFELAWTMAENLANCERLIEVE [F8W] | 1.48
37 | QKNFELACTMAENLANCERLIEVE [F8C] | 1.07
38 | QKNFELASTMAENLANCERLIEVE [F8S] | 1.45
39 | QKNFELAYTMAENLANCERLIEVE [F8Y] | 1.35
40 | QKNFELAGTMAENLANCERLIEVE [F8G] | 4.29
41 | QKNFELAETMAENLANCERLIEVE [F8E] | 3.82
42 | QKNFELAPTMAENLANCERLIEVE [F8P] | 4.98
43 | QKNFELAQTMAENLANCERLIEVE [F8Q] | 3.61
44 | QKNFELAVTMAENLANCERLIEVE [F8V] | 2.12
45 | QKNFELAHTMAENLANCERLIEVE [F8H] | 2.33
46 | QKNFELADTMAENLANCERLIEVE [F8D] | 4.41
47 | QKNFELATTMAENLANCERLIEVE [F8T] | 2.6
48 | QKNFELANTMAENLANCERLIEVE [F8N] | 2.06

Row | Variant | protein stability index
49 | QKNFELAFSMAENLANCERLIEVE [T9S] | 1.98
50 | QKNFELAFEMAENLANCERLIEVE [T9E] | 2.9
51 | QKNFELAFVMAENLANCERLIEVE [T9V] | 2.5
52 | QKNFELAFIMAENLANCERLIEVE [T9I] | 3.12
53 | QKNFELAFWMAENLANCERLIEVE [T9W] | 2.96
54 | QKNFELAFQMAENLANCERLIEVE [T9Q] | 1.89
55 | QKNFELAFAMAENLANCERLIEVE [T9A] | 1.37
56 | QKNFELAFNMAENLANCERLIEVE [T9N] | 2.37
57 | QKNFELAFKMAENLANCERLIEVE [T9K] | 1.39
58 | QKNFELAFGMAENLANCERLIEVE [T9G] | 2.02
59 | QKNFELAFDMAENLANCERLIEVE [T9D] | 2.74
60 | QKNFELAFHMAENLANCERLIEVE [T9H] | 1.96
61 | QKNFELAFRMAENLANCERLIEVE [T9R] | 1.13
62 | QKNFELAFCMAENLANCERLIEVE [T9C] | 2.03
63 | QKNFELAFPMAENLANCERLIEVE [T9P] | 3.3
64 | QKNFELAFYMAENLANCERLIEVE [T9Y] | 2.57
65 | QKNFELAFTMAKNLANCERLIEVE [E12K] | 2.05
66 | QKNFELAFTMAQNLANCERLIEVE [E12Q] | 1.87
67 | QKNFELAFTMADNLANCERLIEVE [E12D] | 1.8
68 | QKNFELAFTMAINLANCERLIEVE [E12I] | 1.74
69 | QKNFELAFTMANNLANCERLIEVE [E12N] | 2.6
70 | QKNFELAFTMARNLANCERLIEVE [E12R] | 1.33
71 | QKNFELAFTMASNLANCERLIEVE [E12S] | 4
72 | QKNFELAFTMAPNLANCERLIEVE [E12P] | 2.26

Row | Variant | protein stability index
73 | QKNFELAFTMALNLANCERLIEVE [E12L] | 2.69
74 | QKNFELAFTMAGNLANCERLIEVE [E12G] | 1.98
75 | QKNFELAFTMAHNLANCERLIEVE [E12H] | 2.01
76 | QKNFELAFTVAENLANCERLIEVE [M10V] | 3.29
77 | QKNFELAFTQAENLANCERLIEVE [M10Q] | 4.38
78 | QKNFELAFTHAENLANCERLIEVE [M10H] | 3.91
79 | QKNFELAFTFAENLANCERLIEVE [M10F] | 3.08
80 | QKNFELAFTDAENLANCERLIEVE [M10D] | 4.64
81 | QKNFELAFTRAENLANCERLIEVE [M10R] | 3.77
82 | QKNFELAFTGAENLANCERLIEVE [M10G] | 4.33
83 | QKNFELAFTIAENLANCERLIEVE [M10I] | 1.57
84 | QKNFELAFTPAENLANCERLIEVE [M10P] | 3.66
85 | QKNFELAFTAAENLANCERLIEVE [M10A] | 3.87
86 | QKNFELAFTNAENLANCERLIEVE [M10N] | 4.24
87 | QKNFELAFTTAENLANCERLIEVE [M10T] | 3.66
88 | QKNFELAFTSAENLANCERLIEVE [M10S] | 3.88
89 | QKNFELAFTCAENLANCERLIEVE [M10C] | 3.37
90 | QKNFELAFTEAENLANCERLIEVE [M10E] | 4.17
91 | QKNFELAFTLAENLANCERLIEVE [M10L] | 1.66
92 | QKNFELAFTWAENLANCERLIEVE [M10W] | 1.41
93 | QKNFELAFTYAENLANCERLIEVE [M10Y] | 3.45
94 | QKNFELAFTKAENLANCERLIEVE [M10K] | 3.9
